According to publication PMC3380823:

What was measured:
[1] = target: recombinant phospholipase C of Chlamydomonas reinhardtii (CrPLC), wild type (Chlamydomonas reinhardtii); assay: SEC; HiLoad 16/60 Superdex 200 prep grade and Superose 12 10/300 GL analytical columns, PBS, 1 ml/min, 4°C, no reducing agent; calibrated with molecular weight standards; 5 to 50 µM on the analytical column; monomer and dimer fractions reloaded
[2] = target: CrPLC C7A mutant (Chlamydomonas reinhardtii); assay: as above

| Substance | stoichiometry N [1] | percent of dimerization disrupted [2] |
| --- | --- | --- |
| recombinant phospholipase C of Chlamydomonas reinhardtii (CrPLC), wild type (enzyme) | 2 | – |
| CrPLC C7A mutant (enzyme) | – | 95% |
